Assay results published in patent WO2019054460A1 (dated 2019).
Residue numbers refer to the chain shown, from its start. One block for each binder: values may come before it.

Key:
[1] = molecular target: T1, human RAMP2 co-expressed with human CRLR on CHO-K1 cells (hCR2-CHOK1) (human, UniProt O60895 43-175; Q16602 23-461); assay: Cell ELISA on fixed hCR2-CHOK1 cells, 1/10 serial dilution from 67 nM, anti-human IgG Fc-HRP, GraphPad Prism 7
T1 construct: whole, on cells; The antibodies are directed to RAMP2; also called hCRLR / hRAMP2-expressing CHO-K1 cells; membrane surface RAMP2 protein
T1 sequence (O60895 43-175, chain 1 of 2): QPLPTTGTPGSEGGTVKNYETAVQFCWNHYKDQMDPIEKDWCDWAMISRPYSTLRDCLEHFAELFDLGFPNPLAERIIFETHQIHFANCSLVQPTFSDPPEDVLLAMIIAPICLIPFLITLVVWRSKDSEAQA
T1 sequence (Q16602 23-461, chain 2 of 2): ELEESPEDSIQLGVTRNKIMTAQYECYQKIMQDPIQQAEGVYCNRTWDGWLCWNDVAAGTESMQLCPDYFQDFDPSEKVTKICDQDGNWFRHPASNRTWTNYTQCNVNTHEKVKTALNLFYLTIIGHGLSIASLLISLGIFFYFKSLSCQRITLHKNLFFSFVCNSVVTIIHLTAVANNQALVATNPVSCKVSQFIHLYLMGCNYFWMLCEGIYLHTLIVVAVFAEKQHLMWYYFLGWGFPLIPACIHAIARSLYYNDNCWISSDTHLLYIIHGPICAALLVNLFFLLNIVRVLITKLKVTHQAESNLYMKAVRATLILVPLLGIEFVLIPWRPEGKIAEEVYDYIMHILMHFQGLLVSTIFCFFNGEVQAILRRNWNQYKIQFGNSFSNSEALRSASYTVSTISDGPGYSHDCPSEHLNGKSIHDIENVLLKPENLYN

[2] = molecular target: T1, human RAMP2 co-expressed with human …; assay: cell-based or functional assay
[3] = molecular target: RAMP2 expressed on the cell surface of HUVEC (human umbilical vein endothelial cells) (human, UniProt O60895 43-175); assay: cell-based or functional assay
RAMP2 expressed on the cell surface of HUVEC (human umbilical vein endothelial cells), sequence (O60895 43-175): as the sequence (O60895 43-175, chain 1 of 2) above

[4] = molecular target: T1, human RAMP2 co-expressed with human …; assay: Cell ELISA on fixed hCR2-CHOK1 cells, 1/2 serial dilution from 67.5 nM, GraphPad Prism 7
[5] = molecular target: RAMP2 expressed on the cell surface of HUVEC (human umbilical vein endothelial cells) (human) (UniProt O60895); assay: cell-based or functional assay
RAMP2 expressed on the cell surface of HUVEC (human umbilical vein endothelial cells) (human), sequence (O60895 43-175): as the sequence (O60895 43-175, chain 1 of 2) above

B1: h25H4-4F9v3 (antibody, V domains shown)
VH: EVQLVQSGAEVKKPGATVKISCKASGYSFTGYFMNWVKQAPGKGLESIGRNNPYNGDSIYNQKFKGRATLTVDTSTDTAYMELSSLRSEDTAVYYCARLMIFDAYYAMDYWGQGTTVTVSS
VL: DIQMTQSPSSLSASVGDRVTITCRASQDIRNYLNWYQQKPGKAVKLLIYYTSRLHSGVPSRFSGSGSGTDYTLTISSLQPEDIATYFCQQDSKHPWTFGQGTKLEIK
EC50 [1]: 830 pM
IC50 values for cAMP inhibition [2]: 260 pM

B3: h25H4-4F9v8 (antibody, V domains shown)
VH: EVQLVQSGAEVKKPGATVKISCKVSGYTFTGYFMNWVQQAPGKGLEWMGRNNPYNGDSIYAEKFQGRVTITADTSTDTAYMELSSLRSEDTAVYYCARLMIFDAYYAMDYWGQGTTVTVSS
VL: B1 VL with R24Q, V44P, H55E, S56T, Y71F, L73F, F87Y
EC50 [1]: 3030 pM
IC50 values for cAMP inhibition [2]: 1070 pM

B4: h25H4-4F9v4 (antibody, V domains shown)
VH: B3 VH with T28S, W47S, M48I, A61N
VL: B1 VL
EC50 [1]: 1830 pM
IC50 values for cAMP inhibition [2]: 170 pM

B5: h25H4-4F9v5 (antibody, V domains shown)
VH: B3 VH with T28S, W47S, M48I, A61N
VL: B1 VL with R24Q, Y71F, L73F, F87Y
EC50 [1]: 2320 pM
IC50 values for cAMP inhibition [2]: 500 pM

B6: h25H4-4F9v6 (antibody, V domains shown)
VH: B3 VH with W47S
VL: B1 VL with R24Q, Y71F, L73F, F87Y
EC50 [1]: 3190 pM
IC50 values for cAMP inhibition [2]: 1350 pM

B7: 25H4-4F9 antibody (antibody, V domains shown)
VH: EVQLQQSGPELVKPGASVKISCKASGYSFTGYFMNWVKQSQGKSLESIGRNNPYNGDSIYNQKFKGKATLTVDKSSNTAHMELRSLTSEDSAVYYCARLMIFDAYYAMDYWGQGTSVTVSS
VL: DIQMTQTTSSLSASLGDRVTISCRASQDIRNYLNWYQQKPDGTVKLLIYYTSRLHSGVPSRFSGSGSGTDYSLTISNLEQEDIATYFCQQDSKHPWTFGGGTKLEIK
EC50 [4]: 400 pM
HUVEC proliferation upon AM addition, 10 nM antibody (OD450, % of no antibody) [5]: 30%
IC50 values for inhibition of HUVEC proliferation [5]: 1200 pM
IC50 values for cAMP inhibition [2]: 150 pM

B10: 33H4-1G3 antibody (antibody, V domains shown)
VH: EVQLQQSGPELVKPGASVKMSCKASGYSFSGYFMNWVKQSHGKSLEWIGRINPYNGDTLYNQKFKGKATLTVDKSSNTIYMELRSLTSEDSALYYCARLGIYDVYHYVMENWGQGTSVTVSS
VL: B7 VL with H94N
EC50 [4]: 300 pM
HUVEC proliferation upon AM addition, 10 nM antibody (OD450, % of no antibody) [5]: 30%
IC50 values for inhibition of HUVEC proliferation [5]: 1600 pM
IC50 values for cAMP inhibition [2]: 45 pM

B11: h25H4-4F9v2 (antibody, V domains shown)
VH: B1 VH
VL: B1 VL with P8T, V15L, A43T, P80Q
EC50 [1]: 1050 pM
HUVEC growth inhibition rate (IC50) [3]: 10900 pM
IC50 values for cAMP inhibition [2]: 140 pM

B12: 85H7-2B11 antibody (antibody, V domains shown)
VH: B10 VH with L59F, N77S, I79T, Y80H
VL: B7 VL with H94N
EC50 [4]: 140 pM
HUVEC proliferation upon AM addition, 10 nM antibody (OD450, % of no antibody) [5]: 30%
IC50 values for inhibition of HUVEC proliferation [5]: 800 pM
IC50 values for cAMP inhibition [2]: 30 pM

Now from value to binder:

EC50 [1]: 230 pM
HUVEC growth inhibition rate (IC50) [3]: 1500 pM
IC50 values for cAMP inhibition [2]: 80 pM
B2: h85H7-2B11v3 (antibody, V domains shown)
VH: QVQLVQSGAEVKKPGASVKMSCKASGYSFSGYFMNWVKQAPGQGLEWIGRINPYNGDTFYNQKFKGRATLTVDTSTSTTYMELSSLRSEDTALYYCARLGIYDVYHYVMENWGQGTTVTVSS
VL: B1 VL with H94N

EC50 [1]: 730 pM
HUVEC growth inhibition rate (IC50) [3]: 16000 pM
IC50 values for cAMP inhibition [2]: 170 pM
B8: h25H4-4F9v1 (antibody, V domains shown)
VH: B1 VH with A9P, K12V, P41Q, G44S, R67K, T74K, D77N
VL: B1 VL with P8T, V15L, A43T, P80Q

EC50 [1]: 180 pM
HUVEC growth inhibition rate (IC50) [3]: 5100 pM
IC50 values for cAMP inhibition [2]: 70 pM
B9: h85H7-2B11v1 (antibody, V domains shown)
VH: B2 VH with Q1E, A9P, K12V, P41H, G44S, R67K, T74K
VL: B1 VL with P8T, V15L, A43T, P80Q, H94N

EC50 [1]: 240 pM
HUVEC growth inhibition rate (IC50) [3]: 9500 pM
IC50 values for cAMP inhibition [2]: 110 pM
B13: h85H7-2B11v2 (antibody, V domains shown)
VH: B2 VH
VL: B1 VL with P8T, V15L, A43T, P80Q, H94N
